Biological target: pre-dimerized IMPα2/IMPβ1 heterodimer (GST-fused mouse proteins) (mouse, UniProt P52293 1-529; P70168 1-876)
Assay: AlphaScreen or HTRF
Conditions: both partners purified

B1: His6-GFP-fused wt P-CTD (rabies virus P-protein C-terminal domain) (domain or fragment)
chain: VAQVAPGPPALEWSATNEEDDLSVEAEIAHQIAESFSKKYKFPSRSSGIFLYNFEQLKMNLDDIVKEAKNVPGVTRLAHDGSKIPLRCVLGWVALANSKKFQLLVEADKLSKIMQDDLNRYTSC
With B1 as the binder, how does the Kd read?
Its Kd is 1.7 ± 0.6 nM.

Reference: article PMC4777398 (PLoS ONE, 2016)
